The record followed here is PMC3724782, “The LDL Receptor-Related Protein 1 (LRP1) Regulates the PDGF Signaling Pathway by Binding the Protein Phosphatase SHP-2 and Modulating SHP-2- Mediated PDGF Signaling Events” (PLoS ONE, 2013).

Like-named read-outs stand apart in the source and are kept apart here.

The assay has as its target T1, recombinant human SHP-2 (human, UniProt Q06124 1-593).
T1 construct: SHP-2, protein tyrosine phosphatase with two SH2 domains, human, recombinant; The supplier is named only in the SPR methods; source: bought: R&D Systems, 1894-SH-100
T1 sequence (looked up): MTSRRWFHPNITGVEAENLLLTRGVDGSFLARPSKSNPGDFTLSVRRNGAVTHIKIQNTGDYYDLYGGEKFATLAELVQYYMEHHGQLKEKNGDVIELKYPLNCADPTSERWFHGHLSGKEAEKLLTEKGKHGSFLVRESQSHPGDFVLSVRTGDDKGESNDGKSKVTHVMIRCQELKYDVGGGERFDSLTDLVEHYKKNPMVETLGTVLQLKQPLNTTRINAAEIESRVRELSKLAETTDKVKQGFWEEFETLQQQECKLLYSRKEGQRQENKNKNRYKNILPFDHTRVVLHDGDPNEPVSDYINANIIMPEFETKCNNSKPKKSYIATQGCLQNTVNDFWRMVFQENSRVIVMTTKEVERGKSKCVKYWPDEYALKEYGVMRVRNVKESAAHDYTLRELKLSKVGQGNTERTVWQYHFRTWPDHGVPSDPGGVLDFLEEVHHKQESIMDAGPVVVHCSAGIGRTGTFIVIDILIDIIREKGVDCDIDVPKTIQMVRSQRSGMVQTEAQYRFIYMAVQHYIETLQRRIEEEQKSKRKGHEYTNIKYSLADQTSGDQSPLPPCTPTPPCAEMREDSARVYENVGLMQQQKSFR
Kind of assay: ELISA; wells coated with SHP-2 (5 µg/mL, TBS pH 8) or BSA; GST:LRP1-ICD or PDGFRβ KD titrated in TBS, 0.5% BSA, 0.05% Tween 20, sodium orthovanadate, overnight at 4°C; detected with anti-GST or anti-PDGFRβ antibody; fit to a single class of sites.

Consider “phosphorylated GST:LRP1-ICD (LDL receptor-related protein 1 intracellular domain fused to glutathione S-transferase, tyrosine-phosphorylated) (domain or fragment)”, for which the Kd came out at 18 nM.

B1: phosphorylated PDGFRβ kinase domain (domain or fragment, UniProt P09619 558-1106, looked up)
chain: KKPRYEIRWKVIESVSSDGHEYIYVDPMQLPYDSTWELPRDQLVLGRTLGSGAFGQVVEATAHGLSHSQATMKVAVKMLKSTARSSEKQALMSELKIMSHLGPHLNVVNLLGACTKGGPIYIITEYCRYGDLVDYLHRNKHTFLQHHSDKRRPPSAELYSNALPVGLPLPSHVSLTGESDGGYMDMSKDESVDYVPMLDMKGDVKYADIESSNYMAPYDNYVPSAPERTCRATLINESPVLSYMDLVGFSYQVANGMEFLASKNCVHRDLAARNVLICEGKLVKICDFGLARDIMRDSNYISKGSTFLPLKWMAPESIFNSLYTTLSDVWSFGILLWEIFTLGGTPYPELPMNEQFYNAIKRGYRMAQPAHASDEIYEIMQKCWEEKFEIRPPFSQLVLLLERLLGEGYKKKYQQVDEEFLRSDHPAILRSQARLPGFHGLRSPLDTSSVLYTAVQPNEGDNDYIIPLPDPKPEVADEGPLEGSPSLASSTLNEVNTSSTISCDSPLEPQDEPEPEPQLELQVEPEPELEQLPDSGCPAPRAEAEDSFL
modifications: phosphotyrosine (autophosphorylated with ATP and MgCl2; sites not mapped here)
notes: PDGF receptor β (PDGFRβ), kinase domain (KD); as far as I recall the product is a tagged human cytoplasmic fragment reaching to the C-terminus, to be checked with the supplier; also called pPDGFRβ KD; phospho-PDGFRβ KD; source: bought: Millipore (14-463); phosphorylated by incubating the protein with 1 mM ATP and 1 mM MgCl2
For B1, the Kd (both partners purified) is 7.8 ± 1 nM.

B2: unphosphorylated PDGFRβ kinase domain (domain or fragment, UniProt P09619 558-1106, looked up)
chain: KKPRYEIRWKVIESVSSDGHEYIYVDPMQLPYDSTWELPRDQLVLGRTLGSGAFGQVVEATAHGLSHSQATMKVAVKMLKSTARSSEKQALMSELKIMSHLGPHLNVVNLLGACTKGGPIYIITEYCRYGDLVDYLHRNKHTFLQHHSDKRRPPSAELYSNALPVGLPLPSHVSLTGESDGGYMDMSKDESVDYVPMLDMKGDVKYADIESSNYMAPYDNYVPSAPERTCRATLINESPVLSYMDLVGFSYQVANGMEFLASKNCVHRDLAARNVLICEGKLVKICDFGLARDIMRDSNYISKGSTFLPLKWMAPESIFNSLYTTLSDVWSFGILLWEIFTLGGTPYPELPMNEQFYNAIKRGYRMAQPAHASDEIYEIMQKCWEEKFEIRPPFSQLVLLLERLLGEGYKKKYQQVDEEFLRSDHPAILRSQARLPGFHGLRSPLDTSSVLYTAVQPNEGDNDYIIPLPDPKPEVADEGPLEGSPSLASSTLNEVNTSSTISCDSPLEPQDEPEPEPQLELQVEPEPELEQLPDSGCPAPRAEAEDSFL
notes: PDGF receptor β (PDGFRβ), kinase domain (KD); also called PDGFRβ KD; non-phosphorylated PDGFRβ KD; source: bought: Millipore (14-463)
As for B2, the Kd (both partners purified) was 326 ± 68 nM.
